Measured values as given in the supplement of paper PMC10724198.
± gives the standard deviation of the averaged measurements.

Assays:
Saccharomyces cerevisiae [1] = assay: protein stability index of tFT-peptide fusion (C-terminal peptide) (PSI (0-1 scale)); higher = more stable (slower turnover)
Experimental: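 MPS profiling in S. cerevisiae of the tFT-X12 degron library: putative degron peptides plus stable controls, 12 aa, fused to the C-terminus of a sfGFP-mCherry timer. Cells are FACS-sorted into 8 mCherry/sfGFP bins and deep-sequenced. PSI runs from 0 (unstable) to 1 (stable). Backgrounds are wild type, das1Δ and doa10Δ at 30 °C, and wild type, das1Δ, cdc34-1 and cdc53-1 at 37 °C; 2-3 technical replicates each.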

Saccharomyces cerevisiae [2] = assay: as above; settings: genetic background: wild type; temperature: 30 C
[3] = genetic background: cdc34-1, temperature: 37 C
[4] = genetic background: cdc53-1, temperature: 37 C
[5] = genetic background: das1 deletion, temperature: 30 C
[6] = genetic background: das1 deletion, temperature: 37 C
[7] = genetic background: doa10 deletion, temperature: 30 C
[8] = genetic background: wild type, temperature: 30 C
[9] = genetic background: wild type, temperature: 37 C
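Further: PSI is a weighted mean of sequencing reads over stability bins, variants kept only with over 10 reads, mCherry proximal and sfGFP distal, peptide attached via GGGS linker.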

| Sequence | protein stability index (Saccharomyces cerevisiae [1]; [3]) | protein stability index (Saccharomyces cerevisiae [1]; [4]) | protein stability index (Saccharomyces cerevisiae [1]; [5]) | protein stability index (Saccharomyces cerevisiae [1]; [6]) | protein stability index (Saccharomyces cerevisiae [1]; [7]) | protein stability index (Saccharomyces cerevisiae [1]; [8]) | protein stability index (Saccharomyces cerevisiae [1]; [9]) | protein stability index (Saccharomyces cerevisiae [2]) |
| --- | --- | --- | --- | --- | --- | --- | --- | --- |
| CRRQLKVLKSMS | 0.581 ± 0.072 | 0.697 ± 0.025 | 0.653 ± 0.023 | 0.6892 ± 0.0061 | 0.148 ± 0.021 | 0.151 ± 0.03 | 0.31 ± 0.013 | 0.242 ± 0.039 |
| CSFHFSLFFLRV | 0.3793 ± 0.0022 | 0.426 ± 0.048 | 0.356 ± 0.027 | 0.4589 ± 0.0031 | 0.485 ± 0.042 | 0.332 ± 0.014 | 0.422 ± 0.0073 | 0.334 ± 0.037 |
| CSRVVGLFFLVV | 0.5355 ± 0.0037 | 0.62 ± 0.019 | 0.427 ± 0.04 | 0.649 ± 0.042 | 0.371 ± 0.0081 | 0.413 ± 0.033 | 0.604 ± 0.016 | 0.432 ± 0.033 |
| CVCLWCFLVWAR | 0.307 ± 0.018 | 0.391 ± 0.029 | 0.259 ± 0.025 | 0.4581 ± 0.0023 | 0.259 ± 0.013 | 0.246 ± 0.027 | 0.436 ± 0.017 | 0.384 ± 0.016 |
| CVCPFCVWVSCL | 0.598 ± 0.066 | 0.744 ± 0.054 | 0.51 ± 0.027 | 0.752 ± 0.0091 | 0.242 ± 0.0047 | 0.263 ± 0.032 | 0.4205 ± 0.0029 | 0.433 ± 0.081 |
| CVSFFRCLFLIV | 0.217 ± 0.0061 | 0.231 ± 0.019 | 0.302 ± 0.028 | 0.3805 ± 0.00051 | 0.193 ± 0.0083 | 0.144 ± 0.013 | 0.194 ± 0.017 | 0.168 ± 0.0043 |
| CWYVCSFWPYVV | 0.366 ± 0.061 | 0.6476 ± 0.0021 | 0.548 ± 0.022 | 0.69 ± 0.0077 | 0.0885 ± 0.0085 | 0.089 ± 0.027 | 0.0762 ± 0.016 | 0.174 ± 0.013 |
| DAGSSYRFFRFI | 0.693 ± 0.071 | 0.755 ± 0.011 | 0.661 ± 0.011 | 0.739 ± 0.0078 | 0.315 ± 0.0095 | 0.344 ± 0.01 | 0.578 ± 0.0081 | 0.425 ± 0.022 |
| DFFTSFSLFFFL | 0.674 ± 0.028 | 0.7814 ± 0.0048 | 0.635 ± 0.036 | 0.736 ± 0.008 | 0.638 ± 0.051 | 0.636 ± 0.018 | 0.701 ± 0.008 | 0.0727 ± 0.039 |
| DLIGSVRRLFCV | 0.651 ± 0.042 | 0.725 ± 0.013 | 0.621 ± 0.014 | 0.728 ± 0.017 | 0.18 ± 0.0082 | 0.214 ± 0.0082 | 0.303 ± 0.0047 | 0.27 ± 0.042 |
| DLLKAILKIKSL | 0.579 ± 0.095 | 0.704 ± 0.05 | 0.6279 ± 0.0037 | 0.7476 ± 0.0011 | 0.104 ± 0.0099 | 0.0962 ± 0.017 | 0.162 ± 0.049 | 0.171 ± 0.054 |
| DLQTVGLTRFIV | 0.62 ± 0.031 | 0.7362 ± 0.0061 | 0.621 ± 0.022 | 0.714 ± 0.011 | 0.149 ± 0.015 | 0.193 ± 0.0044 | 0.353 ± 0.031 | 0.236 ± 0.071 |
| DLRRYRTLIPCK | 0.38 ± 0.014 | 0.425 ± 0.023 | 0.288 ± 0.034 | 0.4805 ± 0.0034 | 0.2277 ± 0.00047 | 0.275 ± 0.048 | 0.481 ± 0.038 | 0.447 ± 0.034 |
| DPKQVRIQSSWL | 0.699 ± 0.016 | 0.721 ± 0.046 | 0.644 ± 0.042 | 0.723 ± 0.013 | 0.6273 ± 0.0026 | 0.663 ± 0.018 | 0.6863 ± 0.0034 | 0.7428 ± 0.0039 |
| DVLLVVVLGRFL | 0.403 ± 0.058 | 0.563 ± 0.063 | 0.344 ± 0.03 | 0.5481 ± 0.0036 | 0.322 ± 0.043 | 0.312 ± 0.027 | 0.535 ± 0.0089 | 0.44 ± 0.066 |
| DVPLFLPLPVSV | 0.357 ± 0.035 | 0.357 ± 0.01 | 0.278 ± 0.032 | 0.452 ± 0.015 | 0.243 ± 0.0078 | 0.297 ± 0.021 | 0.3903 ± 0.0012 | 0.392 ± 0.0097 |
| ELDVRPMVFLVA | 0.4192 ± 0.0018 | 0.4521 ± 0.0023 | 0.346 ± 0.038 | 0.4943 ± 0.0028 | 0.295 ± 0.0069 | 0.337 ± 0.027 | 0.457 ± 0.011 | 0.422 ± 0.007 |
| ESRDRRVGIANW | 0.69 ± 0.036 | 0.743 ± 0.005 | 0.647 ± 0.0092 | 0.77 ± 0.0086 | 0.648 ± 0.014 | 0.647 ± 0.011 | 0.713 ± 0.014 | 0.7252 ± 0.0026 |
| FACLTPFCLCLT | 0.527 ± 0.016 | 0.564 ± 0.015 | 0.422 ± 0.015 | 0.5742 ± 0.0044 | 0.325 ± 0.005 | 0.349 ± 0.013 | 0.51106 ± 0.0004 | 0.431 ± 0.025 |
| FALFCFVIFMSR | 0.22 ± 0.05 | 0.373 ± 0.1 | 0.245 ± 0.081 | 0.398 ± 0.034 | 0.277 ± 0.028 | 0.227 ± 0.068 | 0.381 ± 0.063 | 0.363 ± 0.06 |

| Sequence | protein stability index (Saccharomyces cerevisiae [1]; [3]) | protein stability index (Saccharomyces cerevisiae [1]; [4]) | protein stability index (Saccharomyces cerevisiae [1]; [5]) | protein stability index (Saccharomyces cerevisiae [1]; [6]) | protein stability index (Saccharomyces cerevisiae [1]; [7]) | protein stability index (Saccharomyces cerevisiae [1]; [8]) | protein stability index (Saccharomyces cerevisiae [1]; [9]) | protein stability index (Saccharomyces cerevisiae [2]) |
| --- | --- | --- | --- | --- | --- | --- | --- | --- |
| FAVTRVHLACWG | 0.453 ± 0.049 | 0.464 ± 0.0047 | 0.368 ± 0.033 | 0.493 ± 0.0079 | 0.3297 ± 0.0031 | 0.369 ± 0.03 | 0.466 ± 0.022 | 0.4649 ± 0.0013 |
| FCCFFVHMSFFL | 0.26 ± 0.0087 | 0.424 ± 0.024 | 0.298 ± 0.026 | 0.45 ± 0.0054 | 0.2646 ± 0.00099 | 0.282 ± 0.012 | 0.427 ± 0.025 | 0.483 ± 0.12 |
| FCFLLLVSFFFV | 0.234 ± 0.0069 | 0.407 ± 0.21 | 0.252 ± 0.029 | 0.388 ± 0.0052 | 0.211 ± 0.011 | 0.219 ± 0.034 | 0.33 ± 0.014 | 0.31 ± 0.028 |
| FCICRFLFIFLG | 0.44 ± 0.018 | 0.463 ± 0.012 | 0.358 ± 0.033 | 0.4917 ± 0.0036 | 0.3325 ± 0.0029 | 0.294 ± 0.029 | 0.411 ± 0.0063 | 0.336 ± 0.049 |
| FCIFAMQICTSA | 0.126 ± 0.013 | 0.173 ± 0.0037 | 0.112 ± 0.033 | 0.221 ± 0.0074 | 0.084 ± 0.015 | 0.108 ± 0.01 | 0.205 ± 0.015 | 0.18 ± 0.017 |
| FCSPFFFFLFRL | 0.283 ± 0.072 | 0.241 ± 0.032 | 0.357 ± 0.028 | 0.4269 ± 0.003 | 0.469 ± 0.0056 | 0.315 ± 0.031 | 0.361 ± 0.03 | 0.4182 ± 0.00048 |
| FFFLPLFLVLSL | 0.239 ± 0.01 | 0.158 ± 0.034 | 0.29 ± 0.025 | 0.378 ± 0.0094 | 0.486 ± 0.03 | 0.29 ± 0.03 | 0.329 ± 0.0071 | 0.363 ± 0.0047 |
| FFGFYLKFVWCG | 0.431 ± 0.062 | 0.4683 ± 0.0021 | 0.391 ± 0.024 | 0.516 ± 0.0079 | 0.146 ± 0.015 | 0.152 ± 0.019 | 0.258 ± 0.025 | 0.21 ± 0.019 |
| FFPSFGLFLCPV | 0.431 ± 0.01 | 0.471 ± 0.0067 | 0.366 ± 0.036 | 0.5001 ± 0.0015 | 0.381 ± 0.013 | 0.357 ± 0.031 | 0.4685 ± 0.0018 | 0.409 ± 0.027 |
| FFSRIIAILVLM | 0.37 ± 0.071 | 0.453 ± 0.014 | 0.337 ± 0.024 | 0.515 ± 0.016 | 0.135 ± 0.011 | 0.144 ± 0.0086 | 0.192 ± 0.035 | 0.23 ± 0.031 |
| FFVEKRVFFGII | 0.604 ± 0.017 | 0.733 ± 0.015 | 0.593 ± 0.026 | 0.738 ± 0.029 | 0.197 ± 0.013 | 0.242 ± 0.015 | 0.408 ± 0.018 | 0.369 ± 0.009 |
| FFVMVFTVEVFV | 0.0407 ± 0.015 | 0.0863 ± 0.019 | 0.0929 ± 0.015 | 0.167 ± 0.01 | 0.0639 ± 0.011 | 0.0875 ± 0.015 | 0.132 ± 0.0075 | 0.194 ± 0.02 |
| FFVWLGWGMFYG | 0.547 ± 0.034 | 0.575 ± 0.015 | 0.425 ± 0.025 | 0.561 ± 0.0085 | 0.408 ± 0.0042 | 0.437 ± 0.013 | 0.6044 ± 0.0019 | 0.528 ± 0.054 |
| FGALVVCFLTRC | 0.426 ± 0.039 | 0.511 ± 0.056 | 0.342 ± 0.027 | 0.519 ± 0.007 | 0.289 ± 0.02 | 0.302 ± 0.04 | 0.481 ± 0.027 | 0.374 ± 0.026 |
| FGGFYGRRVLII | 0.62024 ± 0.00039 | 0.682 ± 0.0097 | 0.544 ± 0.023 | 0.6748 ± 0.0054 | 0.182 ± 0.0081 | 0.209 ± 0.0024 | 0.437 ± 0.0092 | 0.327 ± 0.04 |
| FGGYLRAGVFLT | 0.643 ± 0.032 | 0.6969 ± 0.0015 | 0.645 ± 0.027 | 0.721 ± 0.0034 | 0.388 ± 0.039 | 0.387 ± 0.043 | 0.586 ± 0.016 | 0.473 ± 0.11 |
| FGPVLLVSFLFS | 0.273 ± 0.024 | 0.386 ± 0.033 | 0.242 ± 0.031 | 0.422 ± 0.027 | 0.19 ± 0.016 | 0.235 ± 0.054 | 0.4008 ± 0.0017 | 0.35 ± 0.014 |
| FGVRRSFVVFVV | 0.3827 ± 0.00079 | 0.456 ± 0.011 | 0.337 ± 0.033 | 0.556 ± 0.0058 | 0.0834 ± 0.011 | 0.0934 ± 0.015 | 0.107 ± 0.014 | 0.191 ± 0.023 |
| FHLFIRRSAVIF | 0.493 ± 0.023 | 0.576 ± 0.0062 | 0.455 ± 0.017 | 0.555 ± 0.023 | 0.3488 ± 0.0019 | 0.351 ± 0.033 | 0.458 ± 0.0063 | 0.439 ± 0.025 |
